Earlier results in patent US9879249B2, “Aldehyde-tagged protein-based drug carriers and methods of use” (Redwood Bioscience, Inc., priority 2009, dated 2018).

Conditions: calcitonin peptide alone, unconjugated

## Calcitonin
  absorption half-life: 10 to 15 min
  elimination half-life: 50 to 80 min
